This test has as its target T1, endogenous 53Bp1 (human p53-binding protein) from U2OS nuclear extracts (human, UniProt Q12888 1-1972).
T1 construct: Endogenous protein in nuclear extracts
Kind of test: co-immunoprecipitation from U2OS nuclear extracts, western blot. Here is the method:
Nuclear extracts from mock treated U20S cells or cells exposed to 1 or 8 Gy gamma irradiation were prepared as described by Waterman et al, 1998 Nature Genet., 19:175-178. Endogenous 53BP1, Mre11, or p95/NBS were immunoprecipitated by binding 1 μg/reaction of monoclonal anti-53BP1, or 1 μg/reaction purified Mre11 or p95/NBS antisera (Calbiochem) in 1× IP buffer [25 mM Hepes (pH 7.4)/100 mM NaCl/5 mM MgCl₂/100 mM EDTA/0.2 mg/ml BSA/0.1% Tween-20] to protein-G sepharose beads (Amersham) for 1 hour. After washing three times with 1× IP buffer, 100 μg nuclear extract was added and proteins allowed to bind for 1 hour at 4° C. The beads were washed and the proteins resolved on 6% SDS-PAGE, transferred to PVDF membrane and were visualized by western blot using the antibodies described in Part A above.
For orientation: In western blotting, separated proteins are transferred to a membrane and probed.

T1 sequence (Q12888 whole entry): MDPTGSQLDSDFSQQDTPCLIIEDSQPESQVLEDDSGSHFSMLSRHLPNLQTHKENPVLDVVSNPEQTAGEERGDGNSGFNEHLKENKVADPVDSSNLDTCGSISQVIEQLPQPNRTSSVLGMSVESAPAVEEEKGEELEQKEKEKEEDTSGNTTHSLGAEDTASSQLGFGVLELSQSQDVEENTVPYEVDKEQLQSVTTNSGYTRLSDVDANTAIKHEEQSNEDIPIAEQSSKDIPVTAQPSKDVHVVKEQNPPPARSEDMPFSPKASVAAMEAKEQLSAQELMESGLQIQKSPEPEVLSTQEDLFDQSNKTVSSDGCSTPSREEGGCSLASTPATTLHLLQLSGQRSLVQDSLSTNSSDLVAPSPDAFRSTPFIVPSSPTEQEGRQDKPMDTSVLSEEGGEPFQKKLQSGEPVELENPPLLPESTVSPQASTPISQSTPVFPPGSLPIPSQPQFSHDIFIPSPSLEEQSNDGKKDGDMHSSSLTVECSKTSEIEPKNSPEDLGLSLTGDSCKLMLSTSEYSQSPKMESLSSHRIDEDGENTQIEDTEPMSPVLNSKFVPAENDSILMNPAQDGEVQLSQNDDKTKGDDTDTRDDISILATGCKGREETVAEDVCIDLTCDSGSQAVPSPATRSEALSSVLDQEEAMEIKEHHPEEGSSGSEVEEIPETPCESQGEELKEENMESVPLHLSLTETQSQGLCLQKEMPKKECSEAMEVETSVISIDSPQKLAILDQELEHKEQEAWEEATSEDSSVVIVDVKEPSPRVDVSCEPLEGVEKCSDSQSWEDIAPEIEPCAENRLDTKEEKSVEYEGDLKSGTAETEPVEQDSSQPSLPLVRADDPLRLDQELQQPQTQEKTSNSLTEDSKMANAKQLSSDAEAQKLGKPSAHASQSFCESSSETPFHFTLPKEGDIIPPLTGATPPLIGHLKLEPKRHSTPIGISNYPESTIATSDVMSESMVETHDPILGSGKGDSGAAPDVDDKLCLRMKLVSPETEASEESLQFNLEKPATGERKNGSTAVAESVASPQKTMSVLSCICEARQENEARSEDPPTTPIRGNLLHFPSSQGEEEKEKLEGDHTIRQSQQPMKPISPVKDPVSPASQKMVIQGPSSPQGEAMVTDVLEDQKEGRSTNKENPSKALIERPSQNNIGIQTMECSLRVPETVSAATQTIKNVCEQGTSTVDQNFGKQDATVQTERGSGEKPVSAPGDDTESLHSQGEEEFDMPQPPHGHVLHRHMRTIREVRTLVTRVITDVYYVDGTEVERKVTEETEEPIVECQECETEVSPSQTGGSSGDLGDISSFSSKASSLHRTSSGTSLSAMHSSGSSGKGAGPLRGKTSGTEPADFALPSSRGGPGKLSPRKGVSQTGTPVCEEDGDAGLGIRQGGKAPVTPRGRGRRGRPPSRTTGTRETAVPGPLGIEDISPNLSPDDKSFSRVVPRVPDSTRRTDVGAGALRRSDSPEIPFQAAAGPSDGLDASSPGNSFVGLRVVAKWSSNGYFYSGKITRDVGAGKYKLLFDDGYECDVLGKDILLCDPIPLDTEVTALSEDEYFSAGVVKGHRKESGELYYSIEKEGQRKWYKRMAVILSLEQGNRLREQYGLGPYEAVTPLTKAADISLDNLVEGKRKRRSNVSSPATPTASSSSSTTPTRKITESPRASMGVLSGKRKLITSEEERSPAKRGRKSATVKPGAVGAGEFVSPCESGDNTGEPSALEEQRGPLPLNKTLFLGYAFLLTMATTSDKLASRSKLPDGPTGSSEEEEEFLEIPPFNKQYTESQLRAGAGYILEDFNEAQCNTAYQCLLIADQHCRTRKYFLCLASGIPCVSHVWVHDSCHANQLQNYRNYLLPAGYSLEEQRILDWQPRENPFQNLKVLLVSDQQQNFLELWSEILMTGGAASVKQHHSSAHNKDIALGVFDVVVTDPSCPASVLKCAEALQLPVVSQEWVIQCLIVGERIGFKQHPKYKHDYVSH

B1: Mre11 (other, UniProt P49959 2-708, looked up)
chain: STADALDDENTFKILVATDIHLGFMEKDAVRGNDTFVTLDEILRLAQENEVDFILLGGDLFHENKPSRKTLHTCLELLRKYCMGDRPVQFEILSDQSVNFGFSKFPWVNYQDGNLNISIPVFSIHGNHDDPTGADALCALDILSCAGFVNHFGRSMSVEKIDISPVLLQKGSTKIALYGLGSIPDERLYRMFVNKKVTMLRPKEDENSWFNLFVIHQNRSKHGSTNFIPEQFLDDFIDLVIWGHEHECKIAPTKNEQQLFYISQPGSSVVTSLSPGEAVKKHVGLLRIKGRKMNMHKIPLHTVRQFFMEDIVLANHPDIFNPDNPKVTQAIQSFCLEKIEEMLENAERERLGNSHQPEKPLVRLRVDYSGGFEPFSVLRFSQKFVDRVANPKDIIHFFRHREQKEKTGEEINFGKLITKPSEGTTLRVEDLVKQYFQTAEKNVQLSLLTERGMGEAVQEFVDKEEKDAIEELVKYQLEKTQRFLKERHIDALEDKIDEEVRRFRETRQKNTNEEDDEVREAMTRARALRSQSEESASAFSADDLMSIDLAEQMANDSDDSISAATNKGRGRGRGRRGGRGQNSASRGGSQRGRADTGLETSTRSRNSKTAVSASRNMSIIDAFKSTRQQPSRNVTTKNYSEVIEVDESDVEEDIFPTTSKTDQRWSSTSSSKIMSQSQVSKGVDFESSEDDDDDPFMNTSSLRRNRR
notes: Member of the Mre11/Rad50/NBS complex
On to B1, for which the binding result is “no binding”.

B2: Rad50 (other, UniProt Q92878 1-1312, looked up)
chain: MSRIEKMSILGVRSFGIEDKDKQIITFFSPLTILVGPNGAGKTTIIECLKYICTGDFPPGTKGNTFVHDPKVAQETDVRAQIRLQFRDVNGELIAVQRSMVCTQKSKKTEFKTLEGVITRTKHGEKVSLSSKCAEIDREMISSLGVSKAVLNNVIFCHQEDSNWPLSEGKALKQKFDEIFSATRYIKALETLRQVRQTQGQKVKEYQMELKYLKQYKEKACEIRDQITSKEAQLTSSKEIVKSYENELDPLKNRLKEIEHNLSKIMKLDNEIKALDSRKKQMEKDNSELEEKMEKVFQGTDEQLNDLYHNHQRTVREKERKLVDCHRELEKLNKESRLLNQEKSELLVEQGRLQLQADRHQEHIRARDSLIQSLATQLELDGFERGPFSERQIKNFHKLVRERQEGEAKTANQLMNDFAEKETLKQKQIDEIRDKKTGLGRIIELKSEILSKKQNELKNVKYELQQLEGSSDRILELDQELIKAERELSKAEKNSNVETLKMEVISLQNEKADLDRTLRKLDQEMEQLNHHTTTRTQMEMLTKDKADKDEQIRKIKSRHSDELTSLLGYFPNKKQLEDWLHSKSKEINQTRDRLAKLNKELASSEQNKNHINNELKRKEEQLSSYEDKLFDVCGSQDFESDLDRLKEEIEKSSKQRAMLAGATAVYSQFITQLTDENQSCCPVCQRVFQTEAELQEVISDLQSKLRLAPDKLKSTESELKKKEKRRDEMLGLVPMRQSIIDLKEKEIPELRNKLQNVNRDIQRLKNDIEEQETLLGTIMPEEESAKVCLTDVTIMERFQMELKDVERKIAQQAAKLQGIDLDRTVQQVNQEKQEKQHKLDTVSSKIELNRKLIQDQQEQIQHLKSTTNELKSEKLQISTNLQRRQQLEEQTVELSTEVQSLYREIKDAKEQVSPLETTLEKFQQEKEELINKKNTSNKIAQDKLNDIKEKVKNIHGYMKDIENYIQDGKDDYKKQKETELNKVIAQLSECEKHKEKINEDMRLMRQDIDTQKIQERWLQDNLTLRKRNEELKEVEEERKQHLKEMGQMQVLQMKSEHQKLEENIDNIKRNHNLALGRQKGYEEEIIHFKKELREPQFRDAEEKYREMMIVMRTTELVNKDLDIYYKTLDQAIMKFHSMKMEEINKIIRDLWRSTYRGQDIEYIEIRSDADENVSASDKRRNYNYRVVMLKGDTALDMRGRCSAGQKVLASLIIRLALAETFCLNCGIIALDEPTTNLDRENIESLAHALVEIIKSRSQQRNFQLLVITHDEDFVELLGRSEYVEKFYRIKKNIDQCSEIVKCSVSSLGFNVH
notes: as for B1
For the molecule B2, the binding result was “no binding”.
